Test results: US20230084099A1 (NATIONAL UNIVERSITY CORPORATION TOKAI NATIONAL HIGHER …, published 2023)
Positions count from the first letter of the chain named.

T1: human MEFLIN expressed on cells (human, UniProt O14498 19-428)
T1 sequence (looked up): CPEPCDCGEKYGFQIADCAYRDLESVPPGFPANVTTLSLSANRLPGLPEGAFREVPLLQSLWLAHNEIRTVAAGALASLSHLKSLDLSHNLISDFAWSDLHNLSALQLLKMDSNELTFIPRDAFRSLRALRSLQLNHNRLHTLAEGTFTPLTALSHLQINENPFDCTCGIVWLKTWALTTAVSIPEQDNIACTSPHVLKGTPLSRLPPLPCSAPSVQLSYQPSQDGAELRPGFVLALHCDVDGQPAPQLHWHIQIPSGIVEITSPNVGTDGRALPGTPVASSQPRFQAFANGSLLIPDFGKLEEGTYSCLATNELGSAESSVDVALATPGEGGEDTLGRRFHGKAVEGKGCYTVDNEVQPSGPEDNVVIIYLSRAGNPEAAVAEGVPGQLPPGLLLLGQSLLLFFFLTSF

T2: human MEFLIN protein (human, UniProt O14498 19-428, limits assumed)
T2 construct: In the Western blot the protein and its fragments carried a C-terminal G196 tag and His tag and were expressed in HEK293 cells; also called hMEFLIN; ISLR
T2 sequence (looked up): T1 sequence (looked up)

B1: ADC27-7 (other, DAR 2.4)
VH: EVQLVESGGSLVQPGGSLKLSCVASGYTFSKYWMDWVRQTPGKSLEWIGEINTDGSKTNYAPSIKDRFTISRDNAKSTLYLQMSNVKSDDTAIYYCTNWEDYWGQGVMVTVSS
VL: DVVMTQTPPSLSVAIGQSVSISCKSSQSLVYSDGKTYLHWLLQSSGRSPKRLIYQVSNLDSGVPDRFSGTGSQKDFTLKISRVEAKDLGVYYCAQTTHFPYTFGAGTKLELK
modifications: MMAE drug-linker on cysteine thiols exposed by DTT reduction (positions not stated)
B2: 27-7 antibody (antibody, V domains shown)
VH: B1 VH
VL: B1 VL
notes: Rat hybridoma monoclonal antibody; used as hybridoma culture supernatant; also called clone 27-7
B3: 27-8 antibody (antibody, V domains shown)
VH: VQLTESGPGLVKPSQSLSLTCSVTGYTITSGYDWSWIRKFPGNKMEWMGYITYSGSTNYNPSLKSRISITRDTSKNQFFLQLNSVTTEDTATYYCSRDIAAISFAYWGQGTLVTVSS
VL: DVVMTQTPVAQPVTLGDQASISCRSSQSLVHSNGNTYLEWYLQKPGQSPQLLIYKVSNRFSGVPDRFIGSGSGSDFTLKISRVEPEDLGVYYCFQATHVPLTFGSGTKLEIK
notes: Rat hybridoma monoclonal antibody; used as hybridoma culture supernatant; also called clone 27-8
B4: 46-3 antibody (antibody, V domains shown)
VH: VQLKESGPGLVKPSQSLSLTCSVTGYTITSGYDWSWIRKFPGNKMEWMGFITYSGSTHHNPSLKSRISITRDTSRNQFFLQLNSVTTEDSATYYCARDFSGISFAYWGQGTLVSVSS
VL: B3 VL with M4L, A19V, V90I, V99D
notes: Rat hybridoma monoclonal antibody; used as hybridoma culture supernatant; also called clone 46-3
B5: 34-4 antibody (antibody, V domains shown)
VH: QVQLMESGPGLVQPSQTLSLTCTVSGFSLTSYDMHWVRQPPGKGLEWMGVIWGNGNTHYNSALKSRLSISRDTSKSQVFLKMNSLQTENTAIYFCTGGYFYWGQGVTVTVSS
VL: DVVMTQTPVSLSVAIGHPASISCKSSQSLVGTGGKTYLSWLLQRPGQSPKRLIYLVSKLDSGIPDRFSGSGSETDFTLKISRVEADDLGVYYCLQGTHFPFTFGSGTQLEMK
notes: Rat hybridoma monoclonal antibody; used as hybridoma culture supernatant; also called clone 34-4
B6: 35-9 antibody (antibody, V domains shown)
VH: QVQLTESGPGLVQPSQTLSLTCTVSGFSLSSYGVIWVRQPPGKGLEWMGVIWGNGNTNYNSTLKSRLSISRDTSKSQVFLKMNILQTEDTAMYFCARWESGDYWGQGVTVTVSS
VL: DVVMTQTPVSLSVAVGQPASISCTSSQSLVGSGGKTYLNWFLQRPGQSPKRLISLVSKLDSGIPDRFSGSGSETDFTLKISRVEADDLGVYYCLQGTHFPWTFGGGTKQELK
notes: Rat hybridoma monoclonal antibody; used as hybridoma culture supernatant; also called clone 35-9
B7: 32-1 antibody (antibody, V domains shown)
VH: VQLQQSGGDLVKPGGSLKLSCAASGFTFSSYGMSWVRQTPDKRLEWVATISSGGSYTYYPDSVKGRFTISRDNAKNTLYLQMSSLKSEDTAMYYCVIDYDVMDYWGQGTSVTVSS
VL: DIVMTQTPSSLAVSAGEKVTMSCKSSQSLLNSRTRKNYLAWYQQKPGQSPKLLIYWASTRESGVPDRFTGSGSGTDFTLTISSVQAEDLAVYYCKQSYNLRTFGGGTKLEIK
notes: Mouse hybridoma monoclonal antibody; used as hybridoma culture supernatant; also called clone 32-1
B8: 11-8 antibody (antibody, V domains shown)
VH: VQLQESGPELVKPGASVKISCKASGYSFTDYIILWVKQSHGKSLEWIGNINPYSGNTRYNLKFKGKATLTVDKSSSTAYMQLNSLTSEDSAVYYCARDGDDYAMDYWGQGTSVTVSS
VL: DIVITQTPLSLPVSLGDQASISCRSSQSIVHSNGNTYLEWYLQKPGQSPRLLIYKVSNRFSGVPDRFSGSGSGTDFTLKISRVETEDLGVYYCFQGSHVPWTFGGGTKLEIK
notes: Mouse hybridoma monoclonal antibody; used as hybridoma culture supernatant; also called clone 11-8

What follows are binders tested against T1, human MEFLIN expressed on cells (assay: cell-based or functional assay).

| EC50 of cell proliferation inhibition (MTT test) [pM] | Binder |
| --- | --- |
| 720 | B1 |

These binders were tested against T2, human MEFLIN protein (assay: Western blotting on tagged human MEFLIN fragments).
Description: The human embryonic kidney (HEK293) cell line was allowed to transiently express pRP-CMV vector having an insert of DNA encoding the human MEFLIN protein or a fragment thereof by lipofection, and a cell lysate was prepared. […] SDS-PAGE was performed using the cell lysate, and the electrophoresed protein was transferred to a PVDF membrane. The PVDF membrane was reacted at ordinary temperature for 1 hour using 5% skimmed milk/PBS. The primary antibody used was a culture supernatant of each hybridoma clone diluted 50-fold with PBS. For a positive subject, an anti-G196 antibody was used as a primary antibody. The PVDF membrane was reacted overnight at 4° C. in the presence of the primary antibody. Then, the PVDF membrane was washed with 0.05% Tween/PBS. The secondary antibody used was an anti-rat or anti-mouse antibody-horseradish peroxidase (HRP) conjugate. The secondary antibody was diluted 1000-fold with PBS and reacted with the PVDF membrane at ordinary temperature for 45 minutes. After washing with 0.05% Tween/PBS, the HRP label on the antibody was allowed to emit light using ECL (GE Healthcare Japan Corp.), and an image was captured into a computer using a CCD imager (Las 4000, GE Healthcare Japan Corp.).

| binding result | Binder |
| --- | --- |
| binds | B2 |
| binds | B3 |
| binds | B4 |
| binds | B5 |
| binds | B6 |
| binds | B7 |
| binds | B8 |
